Experimental data as given in PMC6535546, “Novel Carbapenemases FLC-1 and IMI-2 Encoded by an Enterobacter cloacae Complex Isolated from Food Products” (Antimicrobial Agents and Chemotherapy, 2019).

How the values were obtained:
[1] = molecular target: T1, FLC-1 (FRI-like carbapenemase-1) (Enterobacter cloacae, UniProt A0A2I5JVQ1); assay: nitrocefin hydrolysis inhibition; type: biochemical
T1 construct: gene bla; plasmid p3442-FLC-1 gene cloned in pBAD-FLC, expressed in E. coli LMG194; unpurified soluble (cytoplasmic) fraction; about 33 kDa
Protocol: nitrocefin hydrolysis inhibition on FLC-1 (FRI-like carbapenemase-1) | the inhibition of FLC-1 enzymatic activity by clavulanic acid was tested

[2] = system: CO/N=C(\C(=O)N[C@@H]1C(=O)N2C(C(=O)O)=C(COC(C)=O)CS[C@H]12)c1csc(N)n1; assay: cells, lysate or membranes; type: biochemical, Enterobacter cloacae; details: PBS, 0.01% Triton X-100, pH 7.4, 23°C, cytoplasmic fraction of E. coli LMG194 producing FLC-1
[3] = system: C[C@@H](O)[C@H]1C(=O)N2C(C(=O)O)=C(S[C@@H]3CN[C@H](C(=O)Nc4cccc(C(=O)O)c4)C3)[C@H](C)[C@H]12; assay: cells, lysate or membranes; type: biochemical, Enterobacter cloacae; details: PBS, 0.01% Triton X-100, pH 7.4, 23°C, cytoplasmic fraction of E. coli LMG194 producing FLC-1
[4] = system: CC1(C)S[C@@H]2[C@H](NC(=O)[C@H](N)c3ccccc3)C(=O)N2[C@H]1C(=O)O; assay: cells, lysate or membranes; type: biochemical, Enterobacter cloacae; details: PBS, 0.01% Triton X-100, pH 7.4, 23°C, cytoplasmic fraction of E. coli LMG194 producing FLC-1
[5] = system: C[C@@H](O)[C@H]1C(=O)N2C(C(=O)O)=C(SCCN=CN)C[C@H]12; assay: cells, lysate or membranes; type: biochemical, Enterobacter cloacae; details: PBS, 0.01% Triton X-100, pH 7.4, 23°C, cytoplasmic fraction of E. coli LMG194 producing FLC-1
[6] = system: C[C@@H](O)[C@H]1C(=O)N2C(C(=O)O)=C(S[C@@H]3CN[C@H](C(=O)N(C)C)C3)[C@H](C)[C@H]12; assay: cells, lysate or membranes; type: biochemical, Enterobacter cloacae; details: PBS, 0.01% Triton X-100, pH 7.4, 23°C, cytoplasmic fraction of E. coli LMG194 producing FLC-1

T1 sequence (A0A2I5JVQ1 entry or part of it): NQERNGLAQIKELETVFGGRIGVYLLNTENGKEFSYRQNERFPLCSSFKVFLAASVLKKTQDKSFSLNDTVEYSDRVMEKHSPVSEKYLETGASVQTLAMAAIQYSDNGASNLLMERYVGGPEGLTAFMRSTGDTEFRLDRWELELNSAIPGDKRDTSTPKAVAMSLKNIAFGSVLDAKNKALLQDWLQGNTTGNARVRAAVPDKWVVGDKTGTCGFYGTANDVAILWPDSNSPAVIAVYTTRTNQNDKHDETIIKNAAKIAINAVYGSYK

Molecule | IC50 [1] [µM] | Km [2] [µM] | Km [3] [µM] | Km [4] | Km [5] [µM] | Km [6] [µM]
O=C(O)[C@H]1/C(=C/CO)O[C@@H]2CC(=O)N21 [clavulanic acid] | 1.97 ± 0.09 |  |  |  |  | 
FLC-1 (FRI-like carbapenemase-1) (Enterobacter cloacae) |  | 377.1 ± 110.6 | 29.6 ± 11.7 | 1,649 ± 174.2 μM | 177.2 ± 12.5 | 32.4 ± 9.3
